In the RNAGym collection of RNA variant scans (doi:10.1093/nar/gkz1192) one finds self-cleavage data, which are given here for 34 variants.

To fix the notation:
B1: CPEB3 Ribozyme (parent)
chain: UAACAGGGGGCCACAGCAGAAGCGUUCACGUCGCAGCCCCUGUCAGAUUCUGGUGAAUCUGCGAAUUCUGCUGUAUAUCUC

In this data set the parent is B1. Put plainly: self-cleavage, relative activity (ratio to wild type); higher = more cleavage; in vitro, sequencing. The gist of the method: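 For each CPEB3 ribozyme variant, relative activity is its cleaved/total read fraction divided by the unmutated ribozyme's. Barcoded error-prone PCR libraries were transcribed by T7 RNA polymerase (5 hours, 37°C) and held in DNase I for 15 min before an EDTA stop, with cleavage occurring throughout. Template-switching reverse transcription and Illumina sequencing were used to read the RNAs. A 5-read minimum applied, and results are the mean of three batches.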
With UAACAGGGGGCCACAGCAGAAGCGUUCACGUCGCAGCCCCUGUCAGAUUCUGGUGAAUCUGCGAAUUCUGCUGUGUAUCUA [A75G C81A], the self-cleavage was 1.04.
The value for UAACAGGGGGCCACAGCAGAAGCGUUCACGUCGCAGCCCCUGUCAGAUUCUGGUGAAUCUGCGAAUUCUGCUGUCGAUCUC [A75C U76G] was 1.25; that for UAACAGGGGGCCACAGCAGAAGCGUUCACGUCGCAGCCCCUGUCAGAUUCUGGUGAAUCUGCGAAUUCUGCUAUAUGUCUC [G73A A77G] was 1.31.
The value for UAACAGGGGGCCACAGCAGAAGCGUUCACGUCGCAGCCCCUGUCAGAUUCUGGUGAAUCUGCGAAUUCUGCUGAACAUCUC [U74A U76C] was 1.34.
The value for UAACAGGGGGCCACAGCAGAAGCGUUCACGUCGCAGCCCCUGUCAGAUUCUGGUGAAUCUGCGAAUUCUGCUGCACAUCUC [U74C U76C] was 1.2.
UAACAGGGGGCCACAGCAGAAGCGUUCACGUCGCAGCCCCUGUCAGAUUCUGGUGAAUCUGCGAAUUCUGCUGCAAAUCUC [U74C U76A]: the self-cleavage came out at 1.3.
Take UAACAGGGGGCCACAGCAGAAGCGUUCACGUCGCAGCCCCUGUCAGAUUCUGGUGAAUCUGCGAAUUCUGCUGCAUGUCUC [U74C A77G]: the self-cleavage came out at 1.32.
The value for UAACAGGGGGCCACAGCAGAAGCGUUCACGUCGCAGCCCCUGUCAGAUUCUGGUGAAUCUGCGAAUUCUGCUGCAUUUCUC [U74C A77U] was 1.26.
In the case of UAACAGGGGGCCACAGCAGAAGCGUUCACGUCGCAGCCCCUGUCAGAUUCUGGUGAAUCUGCGAAUUCUGCUAUGUAUCUC [G73A A75G], the self-cleavage turned out to be 1.19.
The value for UAACAGGGGGCCACAGCAGAAGCGUUCACGUCGCAGCCCCUGUCAGAUUCUGGUGAAUCUGCGAAUUCUGCUGAAUAUCAC [U74A U80A] was 1.26.
As for UAACAGGGGGCCACAGCAGAAGCGUUCACGUCGCAGCCCCUGUCAGAUUCUGGUGAAUCUGCGAAUUCUGCUGAAUAUCCC [U74A U80C], the self-cleavage is 1.24.
For UAACAGGGGGCCACAGCAGAAGCGUUCACGUCGCAGCCCCUGUCAGAUUCUGGUGAAUCUGCGAAUUCUGCUGUUUAUCUC [A75U], the self-cleavage was 1.15.
In the case of UAACAGGGGGCCACAGCAGAAGCGUUCACGUCGCAGCCCCUGUCAGAUUCUGGUGAAUCUGCGAAUUCUGCUGUCUAUCUC [A75C] it was 1.2; in that of UAACAGGGGGCCACAGCAGAAGCGUUCACGUCGCAGCCCCUGUCAGAUUCUGGUGAAUCUGCGAAUUCUGCUGUGUAUCUC [A75G], 1.01.
Consider UAACAGGGGGCCACAGCAGAAGCGUUCACGUCGCAGCCCCUGUCAGAUUCUGGUGAAUCUGCGAAUUCUGCUAAAUAUCUC [G73A U74A], for which the self-cleavage worked out at 1.25.
For UAACAGGGGGCCACAGCAGAAGCGUUCACGUCGCAGCCCCUGUCAGAUUCUGGUGAAUCUGCGAAUUCUGCUGUUUGUCUC [A75U A77G], the self-cleavage amounted to 1.18.
For UAACAGGGGGCCACAGCAGAAGCGUUCACGUCGCAGCCCCUGUCAGAUUCUGGUGAAUCUGCGAAUUCUGCUCUAUAUCCC [G73C U80C], the self-cleavage was determined as 1.29.
Regarding UAACAGGGGGCCACAGCAGAAGCGUUCACGUCGCAGCCCCUGUCAGAUUCUGGUGAAUCUGCGAAUUCUGCUUUAUAUUUC [G73U C79U], the self-cleavage is 1.32.
The value for UAACAGGGGGCCACAGCAGAAGCGUUCACGUCGCAGCCCCUGUCAGAUUCUGGUGAAUCUGCGAAUUCUGCUGAUUAUCUC [U74A A75U] was 1.29; that for UAACAGGGGGCCACAGCAGAAGCGUUCACGUCGCAGCCCCUGUCAGAUUCUGGUGAAUCUGCGAAUUCUGCUGAGUAUCUC [U74A A75G] was 1.31; that for UAACAGGGGGCCACAGCAGAAGCGUUCACGUCGCAGCCCCUGUCAGAUUCUGGUGAAUCUGCGAAUUCUGCUGACUAUCUC [U74A A75C] was 1.44.
The value for UAACAGGGGGCCACAGCAGAAGCGUUCACGUCGCAGCCCCUGUCAGAUUCUGGUGAAUCUGCGAAUUCUGCUUUAUAUCCC [G73U U80C] was 1.28.
The value for UAACAGGGGGCCACAGCAGAAGCGUUCACGUCGCAGCCCCUGUCAGAUUCUGGUGAAUCUGCGAAUUCUGCUAUACAUCUC [G73A U76C] was 1.26; that for UAACAGGGGGCCACAGCAGAAGCGUUCACGUCGCAGCCCCUGUCAGAUUCUGGUGAAUCUGCGAAUUCUGCUGUCUAUCCC [A75C U80C] was 1.18; that for UAACAGGGGGCCACAGCAGAAGCGUUCACGUCGCAGCCCCUGUCAGAUUCUGGUGAAUCUGCGAAUUCUGCUGUGUAUCCC [A75G U80C] was 0.65.
Consider UAACAGGGGGCCACAGCAGAAGCGUUCACGUCGCAGCCCCUGUCAGAUUCUGGUGAAUCUGCGAAUUCUGCUGUGUAUCAC [A75G U80A], for which the self-cleavage was 1.08.
In the case of UAACAGGGGGCCACAGCAGAAGCGUUCACGUCGCAGCCCCUGUCAGAUUCUGGUGAAUCUGCGAAUUCUGCUGUGUAUCGC [A75G U80G] it was 1.02.
In the case of UAACAGGGGGCCACAGCAGAAGCGUUCACGUCGCAGCCCCUGUCAGAUUCUGGUGAAUCUGCGAAUUCUGCUGUGUGUCUC [A75G A77G] it was 0.57.
For the variant UAACAGGGGGCCACAGCAGAAGCGUUCACGUCGCAGCCCCUGUCAGAUUCUGGUGAAUCUGCGAAUUCUGCUGUGUUUCUC [A75G A77U], the self-cleavage worked out at 1.05.
In the case of UAACAGGGGGCCACAGCAGAAGCGUUCACGUCGCAGCCCCUGUCAGAUUCUGGUGAAUCUGCGAAUUCUGCUGUGAAUCUC [A75G U76A] it was 1.05; in that of UAACAGGGGGCCACAGCAGAAGCGUUCACGUCGCAGCCCCUGUCAGAUUCUGGUGAAUCUGCGAAUUCUGCUGUGGAUCUC [A75G U76G], 0.43; in that of UAACAGGGGGCCACAGCAGAAGCGUUCACGUCGCAGCCCCUGUCAGAUUCUGGUGAAUCUGCGAAUUCUGCUGUGCAUCUC [A75G U76C], 0.94.
In the case of UAACAGGGGGCCACAGCAGAAGCGUUCACGUCGCAGCCCCUGUCAGAUUCUGGUGAAUCUGCGAAUUCUGCUGUCUACCUC [A75C U78C] it was 1.15; in that of UAACAGGGGGCCACAGCAGAAGCGUUCACGUCGCAGCCCCUGUCAGAUUCUGGUGAAUCUGCGAAUUCUGCUGGACAUCUC [U74G U76C], 1.16.
